Reference: the NTF2 design screens of Basanta et al. (2020)

Assay: protease stability score; higher = more stable; yeast display proteolysis, trypsin and chymotrypsin;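 further: log10 excess protease needed over predicted unfolded state with 0 meaning unfolded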

| Sequence | protease stability score |
| --- | --- |
| DSKVRRVAERFMHAIQEGNEDDVRKLADKNVQIHVGEKELRGRDQLAKDVSDRTRQIRLHIKHLSIHVQGDKVIVRFDVVETHNGKPHRYRAKAEMRVRNGRVTRYTVKHDG | 0.633 |
| DSNALSRAMEYLRVVEQGDPKRAKQLFDPNARFIYGDRTVHGKDRIADMLRHERDDMRLQIDDLKTTVQGDKVVVRYKAVRERNGHPETFRAEFRVEFNNGKIEQQNYQVHK | 0.25 |
| DSQERADDWMRDFNRAVQHGDPTQLTDLMDKDANARIGDTSVHGRHHLVTRWQQFRTDVDRVDIHIVSIEVQGDKIHIDMTFQADVNGRRKEDHIVIIAVDRNGKVKVQQIQDK | -0.337 |
| DSQKERDLVEHFLRNFRTGDPDKLKTMADPNAHMRVGDKNVHGREDLSRWVQEVRDRADHIDIDTFSVSNGRATATIVMRVDGKEVRFEVVITMENGKIKSMEQQDR | 0.726 |
| DSRAANLFSHAWKQVETGNNHNFRKLLDPNARRKVGDQTIDGREEMTEDNKRKRKEMHRTIETMSFEDHGDKAVFYMQYVVHHNGEPREIRNRVIIKVRGDRIKEVEVRKDG | 0.006 |
| DSRAQSLFHKWMDALRTGDRRKLSELADPNVSITYGDKTIHGREENMKEAHRLVNQMRVDFDIKSIENEPNRVIIRMRVEYDVNGRPFDDEVVVELRAKGDHIKEVRVRIDPRQVKELSG | 0.907 |
| DSRAVHLAKNFMSALKTGDHDRARDNLDKDARISIGDKVWHGMDEAVHDIKREKEEMRIEFRKVDAKDSNGKVRMDADVVFNHDGRPDKFRLDADIEVHNGRIHVLDVENSK | 0.264 |
| DSRDNRAATRLRQAHESGDPDQIRDNVDPNATIQVGDKSIHGMESWAREEHKKHRELKVEIKDFRQSASNGHVKATIDRVDNHNGRPQRTTVDIHIVFHNGKVKSIDVKTTK | -0.481 |
| DSREAKRAETFFRLVQRGDSRKLQEYMDPNARINIGEKRIHGRENYAKEVKDRREHIRVDIKSLEASDTNGRIHVEVHFEHSHNGRPDQQTMELRITMHNGRAQEITQHETK | -0.223 |
| DSREEAKRFFTKMVEIFKTGDEDEAHEMADKNARVHVGDKTVRGREQYTRKMSKEVKQVDHAEYRIQDVEVQGEHIRITFVRRIDTNGRTNEQHLVMEAEKHNGRIYIKQIHES | -0.159 |
| DSRELDEFIHKFAQVIRKGNPRDAMKNVDKDARAVVGNKHINGRDQFHKWIEDLNKTIDHFEIVHVEVEGDRALMDVQVNINGKTRRIRLTAHVHNGRFKDVRVDPENERKLNQ | 0.011 |
| DSREQEDFRRKVETNNPDQEKKMFDENARLQVGDKTYHGREKVFDFLKTLMDQVDHVHVRDMHVKGDEYSFDIILDINGRRIHITFLARVHNGHIKSQSLRATDESVKDEIEELQG | 0.404 |
| DSRSNAQRVLDAINQLVHGNPQEFNKNADPNVRATYGDKEVHGREEVKKHVDSLMKKVDHVQVKNYQITGDKARVQVVLDINGRTRHVQINAHAKNGRIKHVEIQQQ | 0.895 |
| DSTNVEILKEYVENQRRGNEDQLRRLMDPNVHVQVGDKQLHGDRQITDEFRRQQEHLRFSIKTYDYRDQGDKVRAHIVYEQMHNGRPETVRHNMVAEIHNGNIKYLQIESDQ | -0.301 |
| DSTQVRILEEMNRAIERGDPERVYQLADPNARFQIGDTQIHGMESFMKHVEETVRHMRISIRSLHADDEGDKMKVTFTFVVNRDGQPRRRVVTATAHANGDQVKYLEWRDDE | 0.477 |
| DTDAVKNFKEDLHAVRSGDPDRLLKMFDPNAKLQIGDKEVTGMDQYAKEVHNTRQEIRMSYELRDYKVDGDKIEADIRVQKDVNGRPYRDKVKVDIKVNNGRIKKARYQVDEDKEKQLQS | -0.126 |
| DTDAVRRALKFIDAMQDGDPDKARELMDPNARVNIGDKEYHGMTSFVKDLKRLRDEIRVQYNIRDYNAQGEKIHVTVDVVFEHNGRPVDERFNVTIDIQGDKIKQVTAHRTK | 1.61 |
| DTDDNRKAAENILTAIQSNDPDERQKNADENVKVNVGDNRISGRENMHEFMKRVWEDVDKITIRSYTFKGDKMTADIHLNFNGQTAKLNVDVNIHNGKAQEVSMDPKADRVVRT | 0.47 |

| Sequence | protease stability score |
| --- | --- |
| DTDDTEALRRFFDALHNGDPDKVDKNADKDVRFKVGDKEIHGREQLRRTVEQQKKEIRYEVDVKQISDHNGQVSVHAHFQENKNGKPKNVEVTAVAEAENGTLKQLEFNSDQ | -0.367 |
| DTDKTARQLVRDLEKALQTGDPDKLAKLFDKDARINVGEKDYQGRERMQRNWRRDNTRIDHVSVDLKDMKIQGNKISVDMTIKFKVDGHHNSRVVVLLFDNDNGTVRAVENQQK | 0.16 |
| DTEARKLIEELLRAVRDGDPDQVKQNADPNARVQYGDQTFHGMDRYAEWVEEMHKQARVSIEFDSFSFTGDKVQMHAKHVVEVNGKPQRDTVVIRAVVRGDKIRNIHFRMDEQRVRDQQS | 0.783 |
| DTEDDHEFARKYVEVLESGDPKQWREMFDEDAKMRIGEKTFRGRDQIATWYERYRRQADHVEVKHVETRGEQFQFDFQVHVNGKHARYTLNIRVHNGKLVEVKFDPDQKKTMDK | 1.75 |
| DTEDLNRLANTMASAIHHNDPDKIVKMFDPNARARVGDKSYHGREDLRKMVNEWHRQADDIHIQQVQVHNGRAYINFVRNVNGVHADLTAIITIENGRAEKMTLTYRNPDDEKKVQG | 0.279 |
| DTEDNHKLREVIRTNNPQEIREMMDPNVKVRYGNKEIEGRDQAVKHEQDLQHRADRVKIEDMRVHGDKLVVVWSINIDGSEFRFSFEARIHNGKVKFAQIQFTDPDLERKFDDMLQ | 0.324 |
| DTEELQRLLTLVETNDFETLAKQADENARADVGDHKITGREDITRWAKQLSDRIDHVEVRSLDIQGDKAVAVLQFHVNGRTMVFRVHISAHNGKVKHFQVKVRDENARKQLKRVVD | 0.147 |
| DTEERAEDFMHIMQNAATHGDPNIQRHLADKHVRVEVGDKTVSGREEHKTEFDKRVKQYDSISVNMRKMEIDGDKARFNVEERYNTNGRNQHHDVKQQAIVQGDKVHLDRVDNK | -0.603 |
| DTEEREKVMEIMRTGDPDKLHKLMDKNVKVVVGDKRYHGREMVEELVQKLKSQIDHIEVKDYTIQGDNLILNAVINVDGRSVELVIFVRVHNGRIKHMNFNVTDEEEQKKLDENLS | 1.34 |
| DTEKLDRFAHEFVKVLREGDEDRMRKLADEDASMNIGDKEYRGREEVAKALREYRERYDHLQVDSIDVQGEHISVKAQVRIDGRRRRARFEVRMHNGRIKEVNFDPDLLKEQHT | 0.206 |
| DTEKTTELKKMFDHEQEGNENHLMRMFDPNATVQVGDKRIHGREDLQRWLDRFRKNQRVNVRSITVDVQGERFRVEVEADAKHNGRPNQMHRSMEVEFHNGRIKRADFQTDG | 0.124 |
| DTELKDQIKRFLSERNSGNPQKMVEQMDPNANMSVGDKSVRGREQVSEQAEREKRELHYRVRSVDISVNGDKVKVKINVEREHNGRPFTMTLDLTIRAHNGRLTRVEVSLSEDDKREIKR | 0.521 |
| DTELTHELSHRIKDNNWEDLSKNADENVEFRVGNKEYHGKEEFQHLQENLKRQIDDVKIHSLTAQGDHLEADVVYNVNGRDLRFTFHMTVRNGKIKEMNASFRDESQVNTMLTVLN | -0.238 |
| DTENEKLQRRFMKALKTNDPHRAREMADENAKVQVGDKRIHGMQTVVEDLEREWREQRNDVKVRSVSNEGNKVNMDATMKVEHNGKPKHFNVVYRATVHNGRIHELRVERDG | 0.088 |
| DTENVKKATDYVHALNTGDEHRVKELMDPNARIRYGDKEVKGHDEIAKTLKTERDQSRVEFDIKRVEHQGNKVSIDLNFRKNQNGQPRSTKVNITVVFHNGKIKEINIQTDG | 1.59 |
| DTEQLKVFKEFVDAHRHNNPEELKKQMDKDVHFRVGNKQIHGREKAAHYWETIMHEIRVEWKSIVMKDSNGKAKAKFRFVENVNGKPQENTYDLEFSARNGRINSITMRFDEDQQRHHKK | 0.345 |
| DTERNAKEAVTRLKKVFTHNDPDKIASMFDENAHIEVGDKRYHGHEEVKRWADDMRNQYDHWDADVRSIDVHGDKVHVEAVITAERNGKTLERTFVVIFDRDNGQLRIHELRDQ | 0.926 |
| DTESAQTFVDVLEEGDFDTLVNLMDKNARLQVGDTTFNGRENARHFFELMKDKVDHLKIDHYEIHGNHVNIDMKLNVNGKTVDVVVYVKFHNGRIQHLRIEARDPEDMRTFKENMR | 1.35 |
